Source: the RNAGym collection of RNA variant scans (doi:10.1073/pnas.2313332121)
This sample holds only a part of the variants without activity.

B1: TPR 5TU (parent)
chain: GGAUCUUCUCGAUCUAACAAAAAAGACAAAUCUGCCACAAAGCUUGAGAGCAUCUUCGGAUGCAGAGGCGGCAGCCUUCGGUGGCGCGAUAGCGCCAACGUUCUCAACUAUGACACGCAAAACGCGUGCUCCGUUGAAUGGAGUUUAUCAUG

Variants of: B1
Assay: polymerase ribozyme fitness, log enrichment relative to wild type (log ratio); higher = more active; in vitro selection for triplet polymerase activity
Summary of the method: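 Mutant libraries were PCR-built and transcribed for each subunit of a heterodimeric triplet polymerase ribozyme and selected for one round in triplicate at −7 °C, frozen, before gel excision of extended constructs and streptavidin-bead capture. Input and output libraries were Illumina-sequenced, keeping genotypes with ≥10 input reads and ≥1 read per output. Fitness is a logarithmic ratio of genotype to wild-type enrichment, in base 2, using inverse-variance-weighted replicate averages.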

Row | Variant | polymerase ribozyme fitness (log ratio)
1 | U4C C57A C87A U146A A150C | ≤ -4.2
2 | C5A A24G A64C G68A C76U C79U G83C U90A C95G A115U A138G | ≤ -4.2
3 | U4G U13A C57A A106C G136A | -1.91
4 | C5A A17U U45A G71C G84A A89U U104G U145G | ≤ -4.2
5 | U4G C54G C95G | -3.63
6 | C5G G34A C38U C43U G83A | ≤ -4.2
7 | C5A C57U G81C G94C C108A G143C | ≤ -4.2
8 | C5A A41G G58A A60C G84A A106U C131U U146A | -3.76
9 | C5A A40C G50U C57U G81C C95A U104G C116G G133A | ≤ -4.2
10 | C5A A19U G86C | -3.47
11 | U4G A23U U44G C51U C76G C96U U148C | ≤ -4.2
12 | C5A A26U A52G G86A G88C A113U G141A | ≤ -4.2
13 | C5G C38U G50A | -1.8
14 | C5G C14G C43G A73G G92U A97C | ≤ -4.2
15 | U4C C18G A52G C54U G70A A91C C93A G128U G133C U151C | ≤ -4.2
16 | U4G C114U | -2.01
17 | C5A A20G C85U C93U A97U | -3.46
18 | C5G A17G | -0.0409
19 | U4C U15G U77A G92U C99G | ≤ -4.2
20 | C5G A29C A47C G50A G86A U90A A91U G143C | ≤ -4.2
21 | U4G A41C G48C A60U A97G A107U | ≤ -4.2

Row | Variant | polymerase ribozyme fitness (log ratio)
22 | U4G G11U A20U A28U U56A C85U C99U U151A | ≤ -4.2
23 | C5A A20C C35A G62A C76A C96G G140A G143C | ≤ -4.2
24 | C5G A17G C38A A47C A60C U82C C95G C123U G143A A147G | ≤ -4.2
25 | C5A C103A | -1.35
26 | U4G A19U C43U C87U A98G | ≤ -4.2
27 | C5G A52G G83C C93U | -3.55
28 | C5G A12U U31A A41U C54U U56A G88A U127C A137C G141A | ≤ -4.2
29 | U4G A29C C75A C96U A115U U148A | -3.99
30 | C5A A21G G88C | -4.09
31 | C5G C14G G48C C57A A73C C87U C118U A121G C123U G140C | ≤ -4.2
32 | C5G A24G A26G A113G C116G | ≤ -4.2
33 | U4G G84A C87U A106C G141A U144G | ≤ -4.2
34 | U4C G11A C57A C96U G124A A150C | ≤ -4.2
35 | C5A U56A G58A C72U C87U U109G G136A U144C | -3.93
36 | U4C C10A A12U U53A G88C C96A | ≤ -4.2
37 | C5A A49U C57A | -0.832
38 | C5G C85U A142U | -1.45
39 | U4C A28G C38U C69U C87G G133A | ≤ -4.2
40 | U4C C103A U139C | -3.94
41 | C5G C54U U56A C99U | -1.99
42 | C5G C69G C93U | -4.12

Row | Variant | polymerase ribozyme fitness (log ratio)
43 | C5A C57U C85U | 0.39
44 | C5A U7C C18G U55A G58A A89C | -1.54
45 | U4G A24U G62U C87U A89U | -3.44
46 | U4G U7G A20U C57U A91U C123U A150U | -3
47 | U4C C5G A20U | -1.25
48 | U4G U33C G84U A120U U130C C132U | ≤ -4.2
49 | C5A A47U G84A G124U | -1.14
50 | U4C G86U | -1.9
51 | C5G A37C G81A | -1.37
52 | C5A A16U A52G A106G | -3.09
53 | C5G A41G C85U C95U A122U C132A | -3.5
54 | C5A U15C U56A C105G A107C G117U U139C G143C U148C | ≤ -4.2
55 | U4C C14A C93G | ≤ -4.2
56 | U4G A37C C87U A122G C125A | -3.07
57 | C5G A19G A29C A39C U145C | ≤ -4.2
58 | C5G A28G A30C C36U A47U C57U C85A A91U C118U A120G C125G A142G | ≤ -4.2
59 | C5G A91U | ≤ -4.2
60 | U4C C76A C93U G141C | ≤ -4.2
61 | C5G C35U A52C G59C A106G C108A C114U A119U A122U G133U | ≤ -4.2
62 | C5A A17U G42A G83C U102A A119U G126U G141U | ≤ -4.2
63 | C5A A21U G50A C85A C96A C118G G133C C149U | ≤ -4.2

Row | Variant | polymerase ribozyme fitness (log ratio)
64 | C5G A12G A22U C38A U44G C75A C79U C93A G133U | ≤ -4.2
65 | C5A A37U | -0.964
66 | U4G C35U G83C G124U U146C | -2.43
67 | C5G C38U A39C C95A G100C | ≤ -4.2
68 | U4G U56G C85A G141C | -2.61
69 | C5A G86U A107G G152A | ≤ -4.2
70 | C5G A29U A64U G86U A150G | ≤ -4.2
71 | U4G A21C C93G | -1.92
72 | C5A C54U C87U U148C | -2.76
73 | C5G A23C C72U G88U C132G U135G U148G | -3.99
74 | C5A U78C A89U C95U | -1.72
75 | U4C C10U U56G A60U G92U | -3.76
76 | C5G C10U A49G U56A G74C C85U U90G C93U G100U A115C G141A | ≤ -4.2
77 | C5G C8U A24G G34A A41G G70C A107G G124U U151G | ≤ -4.2
78 | U4C G11A G68A C72A G83U C93G G140A U148C | ≤ -4.2
79 | U4G A28G A91G C93U A115U G133A | ≤ -4.2
80 | U4C C27U G62C C85A A138U | ≤ -4.2
81 | C5G C14G C96A | -2.31
82 | U4G A49U C57U U82G A91U | ≤ -4.2
83 | C5A G67C C103A G141U A150C | ≤ -4.2
